{"source": "patent US10864269B2", "about": "“Therapeutic combinations comprising anti-CD73 antibodies and uses thereof” (MedImmune Limited, priority 2014, dated 2020)", "key": {"[1]": {"biological_target": "T1, CD73 on the cell surface of MDA-MB-231 cells (Homo sapiens, UniProt P21589)", "T1 construct": "native CD73 expressed on human, murine, and cynomolgus monkey cell lines; endogenous in cells; host or cells: MDA-MB-231", "T1 sequence (P21589 27-549)": "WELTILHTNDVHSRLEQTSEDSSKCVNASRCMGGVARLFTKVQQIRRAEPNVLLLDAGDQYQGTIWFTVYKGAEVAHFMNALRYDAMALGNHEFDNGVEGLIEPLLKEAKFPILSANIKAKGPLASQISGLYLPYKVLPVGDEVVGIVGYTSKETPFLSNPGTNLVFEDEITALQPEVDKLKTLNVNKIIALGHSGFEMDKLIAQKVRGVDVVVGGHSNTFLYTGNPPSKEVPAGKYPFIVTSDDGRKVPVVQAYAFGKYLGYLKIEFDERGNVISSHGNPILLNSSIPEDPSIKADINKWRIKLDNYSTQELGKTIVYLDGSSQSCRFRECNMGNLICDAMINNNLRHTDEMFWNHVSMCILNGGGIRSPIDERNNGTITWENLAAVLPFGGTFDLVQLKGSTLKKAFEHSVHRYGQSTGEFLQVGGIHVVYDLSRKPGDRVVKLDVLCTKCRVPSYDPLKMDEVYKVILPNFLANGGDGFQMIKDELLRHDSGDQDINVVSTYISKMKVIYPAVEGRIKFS", "test": "Antibody-mediated internalization or shedding of CD73 by flow cytometry", "type": "cell-based", "conditions": "for Percentage of CD73 remaining on the cell surface: 100 nM antibody, 37° C.", "experimental": "Antibody-mediated internalization or shedding of CD73 was assessed by flow cytometry. MDA-MB-231 cells were incubated in presence of 100 nM MEDI9447 or negative control antibody R347 in growth medium at 37° C. for 0-4 hours. Cells were washed and resuspended in ice-cold PBS. The presence of CD73 on the cell surface was detected by adding 10 nM DyLight488-labeled detection antibody. Cells were incubated for 15 minutes, washed and analyzed by flow cytometry. The detection antibody binds to an epitope of CD73 that is different from the MEDI9447 epitope and both antibodies simultaneously bind to CD73 without interference."}, "native CD73, 4T1 cells": {"biological_target": "T2, native CD73, 4T1 cells (Mus musculus, UniProt Q61503)", "T2 construct": "native CD73 expressed on human, murine, and cynomolgus monkey cell lines; endogenous in cells; host or cells: 4T1", "T2 sequence (Q61503 29-551)": "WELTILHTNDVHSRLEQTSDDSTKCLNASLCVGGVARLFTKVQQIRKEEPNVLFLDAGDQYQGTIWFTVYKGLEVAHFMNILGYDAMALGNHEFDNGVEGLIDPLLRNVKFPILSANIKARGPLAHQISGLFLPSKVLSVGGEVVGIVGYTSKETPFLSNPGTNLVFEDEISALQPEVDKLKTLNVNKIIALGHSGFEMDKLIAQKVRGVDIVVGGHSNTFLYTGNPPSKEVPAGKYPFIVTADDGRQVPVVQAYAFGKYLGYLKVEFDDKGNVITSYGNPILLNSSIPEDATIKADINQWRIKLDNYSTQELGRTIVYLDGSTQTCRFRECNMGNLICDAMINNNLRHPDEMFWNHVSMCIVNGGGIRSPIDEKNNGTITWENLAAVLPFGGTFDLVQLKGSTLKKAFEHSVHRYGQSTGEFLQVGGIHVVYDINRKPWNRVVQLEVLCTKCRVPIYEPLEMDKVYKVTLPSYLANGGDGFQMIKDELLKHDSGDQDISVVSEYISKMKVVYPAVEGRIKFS", "test": "Flow cytometry binding to native CD73, 4T1 cells", "conditions": "as measured by flow cytometry; read-out: KD, CD73 on the surface of murine 3T1 cells", "experimental": "Binding of MEDI9447 to native CD73 expressed on human, murine, and cynomolgus monkey cell lines was characterized by flow cytometry. The cells were incubated with various concentrations of MEDI9447 and antibody binding was monitored with and fluorophore-labeled anti-human Fc antibody. A plot of the median fluorescence intensity as a function of the MEDI9447 concentration was fitted nonlinearly using a one-site binding isotherm model to calculate the equilibrium dissociation constant.\nThe affinity of enhanced anti-CD73 antibodies (in IgG1-TM format) to human, murine, and cynomolgus CD73 was determined by flow cytometry and surface plasmon resonsance (SPR) (Table 13). The enhanced antibodies had pM affinity to cellular and recombinant CD73 from the three species.\nAll flow cytometry experiments were run at 4C and reagents were prepared in PBS/1% FBS buffer. 10,000 cells were incubated with test antibody in 50 uL volume for 4 hours. Cells were washed twice and incubated in 50 uL goat anti-human IgGFc-AlexaFluor647 conjugate for 15 minutes. Cells were washed, resuspended in buffer supplemented with Dapi, and analyzed on a flow cytometer. […] For the determination of KD values, a plot of the median fluorescence intensity as a function of test antibody concentration was fitted nonlinearly using a one site binding isotherm model."}, "MDA-MB-231 cells": {"system": "MDA-MB-231 cells", "test": "FabZAP antibody internalization assay, MDA-MB-231", "type": "cell-based, human", "conditions": "MDA-MB-231, 3 days", "experimental": "(§1) Internalization of MEDI9447 into cell lines MDA-MB-231 (human mammary carcinoma) and 4T1 (murine mammary carcinoma) was assessed using a human Antibody Internalization Kit that is sold commercially as the FabZAP assay (Advanced Targeting Systems, San Diego Calif.). Serial dilutions of MEDI9447 or negative control antibody R347 were pre-incubated with 40 nM FabZAP reagent (Fab fragment of a polyclonal anti-human IgG antibody conjugated to the cytotoxic protein saporin) and then added to the cell lines. After 3 days in culture, cell proliferation was measured using a luminescent cell viability assay sold commercially as the CELLTITER-GLO® assay (Promega, Madison Wis.). This assay was used to calculate EC50 values and maximum toxicity. […]\n(§2) Cell proliferation of MDA-MB-231 cells and 4T1 cells treated with serial dilutions of test antibody and FabZAP reagent was measured by CELLTITER-GLO® assay (FIG. 2). The signal from the negative control antibody R347 in the CELLTITER-GLO® assay was subtracted from the signal of MEDI9447 and the EC50 value and maximum toxicity were calculated by fitting the dose-response curve using non-linear regression analysis.\n(§3) 1,000 cells/well were cultured in 96 well plates in RPMI/10% FBS. […] After 3 days incubation at 37C, the cell proliferation was measured using the CELLTITER-GLO® assay (Promega, Madison Wis.)."}, "4T1 cells": {"system": "4T1 cells", "test": "FabZAP antibody internalization assay, 4T1", "type": "cell-based, murine", "conditions": "4T1, 3 days", "experimental": "as §1, §2, §3"}}}
{"substance": "MEDI9447: IgG1 with CD730010-derived VL of SEQ ID NO: 68 and VH of SEQ ID NO: 82", "values": [{"measurement": "Percentage of CD73 remaining on the cell surface", "setting": "[1]; 0 h", "result": 100, "unit": "%"}, {"measurement": "Percentage of CD73 remaining on the cell surface", "setting": "[1]; 0.25 h", "result": 90, "unit": "%"}, {"measurement": "Percentage of CD73 remaining on the cell surface", "setting": "[1]; 0.5 h", "result": 90, "unit": "%"}, {"measurement": "Percentage of CD73 remaining on the cell surface", "setting": "[1]; 1 h", "result": 87, "unit": "%"}, {"measurement": "Percentage of CD73 remaining on the cell surface", "setting": "[1]; 2 h", "result": 80, "unit": "%"}, {"measurement": "Percentage of CD73 remaining on the cell surface", "setting": "[1]; 4 h", "result": 73, "unit": "%"}, {"measurement": "CD73 either internalized or shed upon antibody binding", "setting": "[1]; 4 hours incubation", "result": 27, "unit": "%"}, {"measurement": "Kd", "setting": "native CD73, 4T1 cells", "result": "~110", "unit": "pM"}, {"measurement": "maximum toxicity", "setting": "MDA-MB-231 cells", "result": 97, "unit": "%"}, {"measurement": "maximum toxicity", "setting": "4T1 cells", "result": 97, "unit": "%"}]}
